The supplement of paper PMC5998384

Columns and labels:
HeLa Kyoto [1] = assay: thermal stability score vs G1/S (z-score of summed log2 fold changes over temperatures); higher = more thermally stable than in G1/S
HeLa Kyoto [2] = assay: solubility change mitosis vs G1/S (difference of NP-40 vs SDS log2 ratios) (log2 ratio difference); higher = more soluble in mitosis
HeLa Kyoto [3] = assay: solubility in G1/S (NP-40 vs SDS abundance) (log2 ratio); higher = more soluble; details: cell cycle stage: G1/S
HeLa Kyoto [4] = assay: melting temperature (median over replicates), in situ; higher = more thermally stable
[5] = cell cycle stage: early G1 (4.5 h after nocodazole release)
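Wherever melting temperature (median over replicates), in situ is given: HeLa Kyoto cells synchronized by double thymidine or nocodazole block, proteins quantified by TMT10plex mass spectrometry, three independent biological replicates.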
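Wherever solubility change mitosis vs G1/S (difference of NP-40 vs SDS log2 ratios) is given: synchronized HeLa Kyoto cells (double thymidine block for G1/S, nocodazole release for mitosis), protein amounts in NP-40 versus SDS lysates quantified by mass spectrometry, three biological replicates.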
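Wherever solubility in G1/S (NP-40 vs SDS abundance) is given: HeLa Kyoto cells arrested at G1/S by double thymidine block, proteins quantified by TMT10plex mass spectrometry in mild NP-40 versus SDS extracts, three biological replicates.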
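Wherever thermal stability score vs G1/S (z-score of summed log2 fold changes over temperatures) is given: synchronized HeLa Kyoto cells, proteins quantified by TMT10plex mass spectrometry, three biological replicates, mitosis taken 0.5 h after nocodazole release, G1/S directly after double thymidine block.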

| Substance | thermal stability score (HeLa Kyoto [1]; [5]) | thermal stability score (HeLa Kyoto [1]; cell cycle stage: mitosis) | solubility change mitosis (log2) (HeLa Kyoto [2]) | solubility in G1/S (log2) (HeLa Kyoto [3]) | melting temperature (HeLa Kyoto [4]; cell cycle stage: G1/S) [°C] | melting temperature (HeLa Kyoto [4]; cell cycle stage: mitosis) [°C] |
| --- | --- | --- | --- | --- | --- | --- |
| MALTSFLPAPTQLSQDQLEAEEKARSQRSRQTSLVSSRREPPPYGYRKGWIPRLLEDFGDGGAFPEIHVAQYPLDMGRKKKMSNALAIQVDSEGKIKYDAIARQGQSKDKVIYSKYTDLVPKEVMNADDPDLQRPDEEAIKEITEKTRVALEKSVSQKVAAAMPVRAADKLAPAQYIRYTPSQQGVAFNSGAKQRVIRMVEMQKDPMEPPRFKINKKIPRGPPSPPAPVMHSPSRKMTVKEQQEWKIPPCISNWKNAKGYTIPLDKRLAADGRGLQTVHINENFAKLAEALYIADRKAREAVEMRAQVERKMAQKEKEKHEEKLREMAQKARERRAGIKTHVEKEDGEARERDEIRHDRRKERQHDRNLSRAAPDKRSKLQRNENRDISEVIALGVPNPRTSNEVQYDQRLFNQSKGMDSGFAGGEDEIYNVYDQAWRGGKDMAQSIYRPSKNLDKDMYGDDLEARIKTNRFVPDKEFSGSDRRQRGREGPVQFEEDPFGLDKFLEEAKQHGGSKRPSDSSRPKEHEHEGKKRRKE [SNW1] | 0.202 | -3.38 | 0.482 | -0.328 | 52.3 | 50.8 |
| TLN2 | -0.491 | -0.643 | 0.0273 | -0.145 | 50.5 | 50.4 |
| MRAVLDTADIAIVALYFILVMCIGFFAMWKSNRSTVSGYFLAGRSMTWVAIGASLFVSNIGSEHFIGLAGSGAASGFAVGAWEFNALLLLQLLGWVFIPIYIRSGVYTMPEYLSKRFGGHRIQVYFAALSLILYIFTKLSVDLYSGALFIQESLGWNLYVSVILLIGMTALLTVTGGLVAVIYTDTLQALLMIIGALTLMIISIMEIGGFEEVKRRYMLASPDVTSILLTYNLSNTNSCNVSPKKEALKMLRNPTDEDVPWPGFILGQTPASVWYWCADQVIVQRVLAAKNIAHAKGSTLMAGFLKLLPMFIIVVPGMISRILFTDDIACINPEHCMLVCGSRAGCSNIAYPRLVMKLVPVGLRGLMMAVMIAALMSDLDSIFNSASTIFTLDVYKLIRKSASSRELMIVGRIFVAFMVVISIAWVPIIVEMQGGQMYLYIQEVADYLTPPVAALFLLAIFWKRCNEQGAFYGGMAGFVLGAVRLILAFAYRAPECDQPDNRPGFIKDIHYMYVATGLFWVTGLITVIVSLLTPPPTKEQIRTTTFWSKKNLVVKENCSPKEEPYKMQEKSILRCSENNETINHIIPNGKSEDSIKGLQPEDVNLLVTCREEGNPVASLGHSEAETPVDAYSNGQAALMGEKERKKETDDGGRYWKFIDWFCGFKSKSLSKRSLRDLMEEEAVCLQMLEETRQVKVILNIGLFAVCSLGIFMFVYFSL [SLC5A3] | 0.7 | 0.41 | 0.0469 | -0.218 | 57.3 | 55.9 |
| MEEKPGQPQPQHHHSHHHPHHHPQQQQQQPHHHHHYYFYNHSHNHHHHHHHQQPHQYLQHGAEGSPKAQPKPLKHEQKHTLQQHQETPKKKTGYGELNGNAGEREISLKNLSSDEATNPISRVLNGNQQVVDTSLKQTVKANTFGKAGIKTKNFIQKNSMDKKNGKSYENKSGENQSVDKSDTIPIPNGVVTNNSGYITNGYMGKGADNDGSGSESGYTTPKKRKARRNSAKGCENLNIVQDKIMQQETSVPTLKQGLETFKPDYSEQKGNRVDGSKPIWKYETGPGGTSRGKPAVGDMLRKSSDSKPGVSSKKFDDRPKGKHASAVASKEDSWTLFKPPPVFPVDNSSAKIVPKISYASKVKENLNKTIQNSSVSPTSSSSSSSSTGETQTQSSSRLSQVPMSALKSVTSANFSNGPVLAGTDGNVYPPGGQPLLTTAANTLTPISSGTDSVLQDMSLTSAAVEQIKTSLFIYPSNMQTMLLSTAQVDLPSQTDQQNLGDIFQNQWGLSFINEPSAGPETVTGKSSEHKVMEVTFQGEYPATLVSQGAEIIPSGTEHPVFPKAYELEKRTSPQVLGSILKSGTTSESGALSLEPSHIGDLQKADTSSQGALVFLSKDYEIESQNPLASPTNTLLGSAKEQRYQRGLERNDSWGSFDLRAAIVYHTKEMESIWNLQKQDPKRIITYNEAMDSPDQ [NUFIP2] | -0.0647 | -0.912 | 0.593 | -0.731 | 53.8 | 52.4 |
| MAAPEERDLTQEQTEKLLQFQDLTGIESMDQCRHTLEQHNWNIEAAVQDRLNEQEGVPSVFNPPPSRPLQVNTADHRIYSYVVSRPQPRGLLGWGYYLIMLPFRFTYYTILDIFRFALRFIRPDPRSRVTDPVGDIVSFMHSFEEKYGRAHPVFYQGTYSQALNDAKRELRFLLVYLHGDDHQDSDEFCRNTLCAPEVISLINTRMLFWACSTNKPEGYRVSQALRENTYPFLAMIMLKDRRMTVVGRLEGLIQPDDLINQLTFIMDANQTYLVSERLEREERNQTQVLRQQQDEAYLASLRADQEKERKKREERERKRRKEEEVQQQKLAEERRRQNLQEEKERKLECLPPEPSPDDPESVKIIFKLPNDSRVERRFHFSQSLTVIHDFLFSLKESPEKFQIEANFPRRVLPCIPSEEWPNPPTLQEAGLSHTEVLFVQDLTDE [FAF2] | 2.25 | 3.16 | -0.13 | -0.0258 | 49.9 | 50.4 |
| MSRPRKRLAGTSGSDKGLSGKRTKTENSGEALAKVEDSNPQKTSATKNCLKNLSSHWLMKSEPESRLEKGVDVKFSIEDLKAQPKQTTCWDGVRNYQARNFLRAMKLGEEAFFYHSNCKEPGIAGLMKIVKEAYPDHTQFEKNNPHYDPSSKEDNPKWSMVDVQFVRMMKRFIPLAELKSYHQAHKATGGPLKNMVLFTRQRLSIQPLTQEEFDFVLSLEEKEPS [THYN1] | -1.19 | -1.36 | 0.199 | 0.389 | 47.3 | 51.3 |
| MFFWCACCLMVAWRVSASDAEHCPELPPVDNSIFVAKEVEGQILGTYVCIKGYHLVGKKTLFCNASKEWDNTTTECRLGHCPDPVLVNGEFSSSGPVNVSDKITFMCNDHYILKGSNRSQCLEDHTWAPPFPICKSRDCDPPGNPVHGYFEGNNFTLGSTISYYCEDRYYLVGVQEQQCVDGEWSSALPVCKLIQEAPKPECEKALLAFQESKNLCEAMENFMQQLKESGMTMEELKYSLELKKAELKAKLL [C4BPB] | 5.14 | 5.56 | -0.0172 | 0.187 | 54.8 | 54.8 |
| MDEAVGDLKQALPCVAESPTVHVEVHQRGSSTAKKEDINLSVRKLLNRHNIVFGDYTWTEFDEPFLTRNVQSVSIIDTELKVKDSQPIDLSACTVALHIFQLNEDGPSSENLEEETENIIAANHWVLPAAEFHGLWDSLVYDVEVKSHLLDYVMTTLLFSDKNVNSNLITWNRVVLLHGPPGTGKTSLCKALAQKLTIRLSSRYRYGQLIEINSHSLFSKWFSESGKLVTKMFQKIQDLIDDKDALVFVLIDEVESLTAARNACRAGTEPSDAIRVVNAVLTQIDQIKRHSNVVILTTSNITEKIDVAFVDRADIKQYIGPPSAAAIFKIYLSCLEELMKCQIIYPRQQLLTLRELEMIGFIENNVSKLSLLLNDISRKSEGLSGRVLRKLPFLAHALYVQAPTVTIEGFLQALSLAVDKQFEERKKLAAYI [TRIP13] | 3.83 | 2.94 | -0.116 | -0.0812 | 50.9 | 51.3 |
| MFLTRSEYDRGVNTFSPEGRLFQVEYAIEAIKLGSTAIGIQTSEGVCLAVEKRITSPLMEPSSIEKIVEIDAHIGCAMSGLIADAKTLIDKARVETQNHWFTYNETMTVESVTQAVSNLALQFGEEDADPGAMSRPFGVALLFGGVDEKGPQLFHMDPSGTFVQCDARAIGSASEGAQSSLQEVYHKSMTLKEAIKSSLIILKQVMEEKLNATNIELATVQPGQNFHMFTKEELEEVIKDI [PSMA5] | 1.94 | 2.76 | -0.0172 | 0.313 | 55.4 | 53.9 |
| LAMA5 | 1.64 | 3.23 | 0.0689 | -0.331 | 53.3 | 54.1 |
| MADISLDELIRKRGAAAKGRLNARPGVGGVRSRVGIQQGLLSQSTRTATFQQRFDARQKIGLSDARLKLGVKDAREKLLQKDARFRIKGKVQDAREMLNSRKQQTTVPQKPRQVADAREKISLKRSSPAAFINPPIGTVTPALKLTKTIQVPQQKAMAPLHPHPAGMRINVVNNHQAKQNLYDLDEDDDGIASVPTKQMKFAASGGFLHHMAGLSSSKLSMSKALPLTKVVQNDAYTAPALPSSIRTKALTNMSRTLVNKEEPPKELPAAEPVLSPLEGTKMTVNNLHPRVTEEDIVELFCVCGALKRARLVHPGVAEVVFVKKDDAITAYKKYNNRCLDGQPMKCNLHMNGNVITSDQPILLRLSDSPSMKKESELPRRVNSASSSNPPAEVDPDTILKALFKSSGASVTTQPTEFKIKL [POLDIP3] | -0.794 | -0.0102 | 0.732 | -0.386 | 49.3 | 49.9 |
| MATAEVLNIGKKLYEGKTKEVYELLDSPGKVLLQSKDQITAGNAARKNHLEGKAAISNKITSCIFQLLQEAGIKTAFTRKCGETAFIAPQCEMIPIEWVCRRIATGSFLKRNPGVKEGYKFYPPKVELFFKDDANNDPQWSEEQLIAAKFCFAGLLIGQTEVDIMSHATQAIFEILEKSWLPQNCTLVDMKIEFGVDVTTKEIVLADVIDNDSWRLWPSGDRSQQKDKQSYRDLKEVTPEGLQMVKKNFEWVAERVELLLKSESQCRVVVLMGSTSDLGHCEKIKKACGNFGIPCELRVTSAHKGPDETLRIKAEYEGDGIPTVFVAVAGRSNGLGPVMSGNTAYPVISCPPLTPDWGVQDVWSSLRLPSGLGCSTVLSPEGSAQFAAQIFGLSNHLVWSKLRASILNTWISLKQADKKIRECNL [PAICS] | -0.183 | -0.625 | -0.0303 | 0.271 | 63.2 | 66.2 |
| MSDEEARQSGGSSQAGVVTVSDVQELMRRKEEIEAQIKANYDVLESQKGIGMNEPLVDCEGYPRSDVDLYQVRTARHNIICLQNDHKAVMKQVEEALHQLHARDKEKQARDMAEAHKEAMSRKLGQSESQGPPRAFAKVNSISPGSPASIAGLQVDDEIVEFGSVNTQNFQSLHNIGSVVQHSEGKPLNVTVIRRGEKHQLRLVPTRWAGKGLLGCNIIPLQR [PSMD9] | -2.77 | -3.23 | 0.112 | 0.431 | 55.8 | 55.7 |
| FRYL | -0.342 | 0.441 | -0.116 | -0.239 | 49.7 | 52.1 |
| MSLGRLCRLLKPALLCGALAAPGLAGTMCASRDDWRCARSMHEFSAKDIDGHMVNLDKYRGFVCIVTNVASQUGKTEVNYTQLVDLHARYAECGLRILAFPCNQFGKQEPGSNEEIKEFAAGYNVKFDMFSKICVNGDDAHPLWKWMKIQPKGKGILGNAIKWNFTKFLIDKNGCVVKRYGPMEEPLVIEKDLPHYF [GPX4] | -2.51 | -2.1 | -0.141 | 0.136 | 56.3 | 56.3 |
| MSEQSICQARAAVMVYDDANKKWVPAGGSTGFSRVHIYHHTGNNTFRVVGRKIQDHQVVINCAIPKGLKYNQATQTFHQWRDARQVYGLNFGSKEDANVFASAMMHALEVLNSQETGPTLPRQNSQLPAQVQNGPSQEELEIQRRQLQEQQRQKELERERLERERMERERLERERLERERLERERLEQEQLERERQERERQERLERQERLERQERLERQERLDRERQERQERERLERLERERQERERQEQLEREQLEWERERRISSAAAPASVETPLNSVLGDSSASEPGLQAASQPAETPSQQGIVLGPLAPPPPPPLPPGPAQASVALPPPPGPPPPPPLPSTGPPPPPPPPPLPNQVPPPPPPPPAPPLPASGFFLASMSEDNRPLTGLAAAIAGAKLRKVSRMEDTSFPSGGNAIGVNSASSKTDTGRGNGPLPLGGSGLMEEMSALLARRRRIAEKGSTIETEQKEDKGEDSEPVTSKASSTSTPEPTRKPWERTNTMNGSKSPVISRRDSPRKNQIVFDNRSYDSLHRPKSTPLSQPSANGVQTEGLDYDRLKQDILDEMRKELTKLKEELIDAIRQELSKSNTA [ENAH] | 2.28 | 8.8 | 0.0923 | 0.13 | 51.7 | 51.9 |
